Results reported in patent US20140205612A1 (published 2014).

Legend:
[1] = molecular target: JR-FL(E168K) Env on pseudovirus (HIV-1 JR-FL); assay: cell-based or functional assay
ADA Env on pseudovirus = ADA Env on pseudovirus (HIV-1 ADA); assay: cell-based or functional assay
[2] = molecular target: 92RW020 Env on pseudovirus (HIV-1 92RW020); assay: cell-based or functional assay
[3] = molecular target: HIV-1 JR-CSF Env on pseudovirus (HIV-1 JR-CSF, UniProt P20871 32-848); assay: cell-based or functional assay
[4] = molecular target: T1, recombinant monomeric gp120 JR-CSF (HIV-1 JR-CSF, UniProt P20871 32-503); assay: mAb Specificity column, ELISA screen
T1 construct: domain: gp120; also called JR-CSF gp120; JR-CSFgp120
Protocol: In anti-gp120 ELISA, recombinant gp120 (0.5 μg/ml) was captured on 384 well ELISA plates pre-coated (at 4° C. overnight) with goat anti-gp120 (5 μg/ml) in BSA-containing assay buffer (PBS with 0.05% Tween-20) for 1 hr at room temperature. After excess gp120 was removed and plates were washed thrice with assay buffer, B cell culture supernatants diluted 5-fold was added to incubate for 1 hr at room temperature. Following three washes in assay buffer, secondary HRP-conjugated goat anti-human Ig Fc in BSA-containing assay buffer was added and incubated for about 1 hr at room temperature. 3,3′,5,5′-tetramethylbenzidine (TMB) substrate was used to develop the colorimetric readouts after washing the ELISA plates 3 times.

B1: 1443_C16 (PG16) (TCN-116) (antibody, V domains shown)
VH: QEQLVESGGGVVQPGGSLRLSCLASGFTFHKYGMHWVRQAPGKGLEWVALISDDGMRKYHSDSMWGRVTISRDNSKNTLYLQFSSLKVEDTAMFFCAREAGGPIWHDDVKYYDFNDGYYNYHYMDVWGKGTTVTVSS
VL: QSALTQPASVSGSPGQTITISCNGTSSDVGGFDSVSWYQQSPGKAPKVMVFDVSHRPSGISNRFSGSKSGNTASLTISGLHIEDEGDYFCSSLTDRSHRIFGGGTKVTVLG
IC50 (ug/ml), pseudovirus neutralization, TZM-bl assay [1]: 0.006 µg/mL
IC50 (ug/ml), pseudovirus neutralization, TZM-bl assay (ADA Env on pseudovirus): 0.004 µg/mL
IC50 (ug/ml), pseudovirus neutralization, TZM-bl assay [2]: 0.09 µg/mL
IC50 (ug/ml), pseudovirus neutralization, TZM-bl assay [3]: 0.001 µg/mL

B2: 1495_C14 (PGC14) (antibody, human IgG1, lambda, V domains shown)
VH: DGHLVQSGVEVKKTGATVKISCKVSGYSFIDYYLHWVQRAPGKGLEWVGLIDPENGEARYAEKFQGRVTIIADTSIDTGYMEMRSLKSEDTAVYFCAAGAVGADSGSWFDPWGQGTLVTVSS
VL: SYELTQPPSVSVSPGQTASITCSGSKLGDKYVSWYQLRPGQSPILVMYENDRRPSGIPERFSGSNSGDTATLTISGTQALDEADFYCQAWETTTTTFVFFGGGTQLTVLG
binding result [4]: binds

B3: 1456_P20 (PG20) (antibody, human IgG1, kappa, V domains shown)
VH: QVRLVQSGPEVKKPGSSVTVSCQASGGTFSSYAFTWVRQAPGQGLEWLGMVTPIFGEAKYSQRFEGRVTITADESTSTTSIELRGLTSEDTAIYYCARDRRAVPIATDNWLDPWGQGTLVTVSS
VL: DIQLTQSPSSLSASVGDRVSITCRASQTINNYLNWYQQTPGKAPKLLIYGASNLQNGVPSRFSGSGSGTDFTLTISSLQPEDFATYYCQQSFSTPRTFGQGTRLDIKR
binding result [4]: binds

B4: 1460_G14 (PGG14) (antibody, human IgG1, kappa, V domains shown)
VH: QVLLVQSGTEVKKPGSSVKVSCQASGGAFSSYAFSWVRQAPGQGLEWMGMITPVFGETKYAPRFQGRLTLTAEESLSTTYMELRSLTSDDTAFYYCTRDRRVVPMATDNWLDPWGQGTLVTVSS
VL: DIQLTQSPSSLSASVGDRVTVTCRASQTIHTYLNWYQQIPGKAPKLLIYGASTLQSGVPSRFSGSGSGTDFTLTINSLQPEDFATYYCQQSYSTPRTFGQGTRLDIKR
binding result [4]: binds

B5: 1496_C09 (PG9) (TCN-109) (antibody, V domains shown)
VH: QRLVESGGGVVQPGSSLRLSCAASGFDFSRQGMHWVRQAPGQGLEWVAFIKYDGSEKYHADSVWGRLSISRDNSKDTLYLQMNSLRVEDTATYFCVREAGGPDYRNGYNYYDFYDGYYNYHYMDVWGKGTTVTVSS
VL: QSALTQPASVSGSPGQSITISCNGTSNDVGGYESVSWYQQHPGKAPKVVIYDVSKRPSGVSNRFSGSKSGNTASLTISGLQAEDEGDYYCKSLTSTRRRVFGTGTKLTVLG
IC50 (ug/ml), pseudovirus neutralization, TZM-bl assay (ADA Env on pseudovirus): 0.2 µg/mL
IC50 (ug/ml), pseudovirus neutralization, TZM-bl assay [2]: 0.1 µg/mL
